The source of these data is PMC2572221.

Assay [1] addresses rat C3b (rat). In words: SPR; Biacore 3000; rat C3b (1000RU) covalently coupled to the chip through its internal thioester after deposition by a convertase on a nidus of human C3b (50RU); different concentrations of the sCrry proteins flowed over; KD from steady state analysis. In general terms: SPR reads the build-up and loss of mass on a sensor chip optically.
The target in assay [2] is rat C3b (rat).

As usually defined, the Kd is the constant that tells how readily two partners part at equilibrium. A high value points to lower affinity.

Take “soluble recombinant form of rat Crry containing the four N-terminal SCRs (domain or fragment)”: the Kd with rat C3b (rat) [1] is 5.1 µM.

As to rCrry-Ig (Fc fusion), the IH50 of inhibition of AP-mediated haemolysis of guinea pig erythrocytes by rat serum, in terms of Crry molarity with rat C3b (rat) [2] was 168 nM.
